Measurements reported in patent US8835467B2, “SIR2 regulation” (Albert Einstein College of Medicine of Yeshiva University, priority 2003, dated 2014).

Substrate: NC(=O)c1cccnc1
Experiment: purified protein, by the assay type
Type: biochemical
Conditions: other: mouse enzyme; saturating NAD+ and peptide; pH 7.8
Method: After 2 hours, aliquots of 10 μL removed at 0, 30, 60, 90 and 120 min. Each aliquot was combined with 50 μL 50 mM ammonium acetate pH 5.0 to quench and assayed by HPLC for deacetylation products and NAD^+. The chromatograms (260 nm) were obtained using 50 mM ammonium acetate pH 5.0 as eluant on a semi-preparative Waters C-18 column (2.0 mL/min flow rate). Peaks for ADPR and 3′-O-Acetyl-ADPR were quantified by integration. The peak for NAD^+ was collected and radiation counted.

B1: Mouse SIR2 enzyme (SIR2α) (Mus musculus) (protein)
chain: MADEVALALQAAGSPSAAAAMEAASQPADEPLRKRPRRDGPGLGRSPGEPSAAVAPAAAGCEAASAAAPAALWREAAGAAASAEREAPATAVAGDGDNGSGLRREPRAADDFDDDEGEEEDEAAAAAAAAAIGYRDNLLLTDGLLTNGFHSCESDDDDRTSHASSSDWTPRPRIGPYTFVQQHLMIGTDPRTILKDLLPETIPPPELDDMTLWQIVINILSEPPKRKKRKDINTIEDAVKLLQECKKIIVLTGAGVSVSCGIPDFRSRDGIYARLAVDFPDLPDPQAMFDIEYFRKDPRPFFKFAKEIYPGQFQPSLCHKFIALSDKEGKLLRNYTQNIDTLEQVAGIQRILQCHGSFATASCLICKYKVDCEAVRGDIFNQVVPRCPRCPADEPLAIMKPEIVFFGENLPEQFHRAMKYDKDEVDLLIVIGSSLKVRPVALIPSSIPHEVPQILINREPLPHLHFDVELLGDCDVIINELCHRLGGEYAKLCCNPVKLSEITEKPPRPQKELVHLSELPPTPLHISEDSSSPERTVPQDSSVIATLVDQATNNNVNDLEVSESSCVEEKPQEVQTSRNVENINVENPDFKAVGSSTADKNERTSVAETVRKCWPNRLAKEQISKRLEGNQYLFVPPNRYIFHGAEVYSDSEDDVLSSSSCGSNSDSGTCQSPSLEEPLEDESEIEEFYNGLEDDTERPECAGGSGFGADGGDQEVVNEAIATRQELTDVNYPSDKS
notes: purchased Upstate Group
  Km: 127 µM
